Assay results: patent publication US20260060994A1, “GLYCOSYLATED COMPOSITIONS AND METHODS OF USE” (Cy Biopharma AG, priority 2023, published 2026)

Legend:
[1] = Pharmacokinetic experiment in mice, plasma and brain, LC-MS/MS; type: in vivo, C57Bl/6J mice
Experimental: In a pharmacokinetic experiment in C57Bl/6J mice (3 animals per timepoint; schedule shown below) two example compounds, Cy1 (4-HO-EPT glycoside) and Cy2 (4-HO-DMT glycoside) were dosed at two different concentrations (20 mg/kg dose shown here) and the parent compounds and their de-glycosylated forms, 4-HO-EPT and psilocin (4-HO-DMT), respectively, were measured by LC-MS/MS in plasma and brain tissue samples. For comparison, psilocybin was dosed at 1.5 mg/kg orally and plasma and brain tissue concentrations of psilocin (4-HO-DMT) were measured. Samples were collected at four or five different timepoints (from 10-minutes post dosing up to 6-hours post dosing) following the test article administration.
Schedule of pharmacokinetic experiment shown below.
Results are reported in ng/mL for the concentration in plasma and in ng/g tissue for the concentration measured in brain samples.
Results: The graphs in FIG. 35, FIG. 36, FIG. 37, and FIG. 38 display the time course of concentrations of compounds as indicated. For each time point the data for the individual animals are plotted.

[2] = Glycosylation of 4-HO-MET by GLY enzymes (UDP-glucose), LC-UV/MS; type: biochemical; settings: 0.5 mM 4-OH-MET, 1.25 mM UDP-glucose, 25% (v/v) GLY enzyme, 24 h at 30° C.; estimate from UV peak areas
Experimental: 4-HO-MET was dissolved in 100% (v/v) DMSO to a concentration of 10 mM. The solution was stored at −20° C. prior to use.
FastAP phosphatase (1 U/uL) from ThermoFisher Scientific (catalog no. EF0651).
GLY enzyme suspensions contain 10 mM Tris-HCl at pH7.4, 250 mM imidazole and 50% (v/v) glycerol.
(§1) The assay conditions were: • 100 mM Tris-HCl, pH 7.4 • 5 mM MgCl2 • 1 mM KCl • 1.25 mM UDP-glucose • 0.5 mM 4-OH-MET • 5% (v/v) DMSO • 0.1 U/uL Fast AP phosphatase • 25% (v/v) GLY enzyme
(§2) Incubation was 24 house at 30° C. Reactions were terminated adding 3 volumes of 75% (v/v) ethanol.
(§3) LC separation was performed using an Agligen 1290 Infinity II UHPLC equipped with a Phenomenex Kinetex XB-C18 column (1.7 um, 100 angstroms, 100×2.1 mm) and 4-HO-MET was detected by absorbance at 210 nm and 268 nm with an Agilent 1260 Infinity II DAD.
(§4) 0.1% Formic acid in water (A) and 0.1% Formic acid in acetonitrile (B) were used as the mobile phases for the elution gradient, with a flow rate of 0.4 ml/min. Retention time for 4-HO-MET using this type of instrument under these condition was 2.6 min. The system was coupled to an Ultivo Triple Quadrupole MS. To verify the presence of possible glycoside products, as SIM (Selected Ion Monitoring) method was used on the MS to analyse for the m/z 381 (theoretical mass to chart ratio of 4-HO-MET-glucoside) and m/z 219 (theoretical mass to charge ratio of 4-HO-MET).
As standard, 4-HO-MET solutions at a concentrations of 500, 250, 125, 62.5, and 31.25 uM were prepared from the 10 mM stock and used for caliboration.
A representative example of the chromatograms obtained with a wavelength of 268 nm for the standard solutions resuspended in the reaction buffer, and the corresponding MS-SIM signal, is shown in FIG. 16. The peak corresponding to 4-HO-MET is indicated.
When analyzing the GLY reactions, 30 of them gave an additional peak with retention time 2.2 min (i.e. in the expected region for a 4-HO-MET glucoside) and molecular mass compatible with the expected glucoside product, together with a corresponding decrease in substrate concentration, compared to the no-enzyme controls.
The method was repeated using various GLY enzymes to produce 4-HO-MET glucosides.
(§5) The enzymes giving the additional peak putatively corresponding to the 4-HO-MET-β-D-glucoside are listed below. […] A correct quantification of the product is not possible without a standard for the specific molecule. However, based on the assumption that the ratio area-to-concentration in the UV chromatograms will be similar to 4-HO-MET, estimates of the relative abundance for the additional peak are also given, expressed as percentage of converted 4-HO-MET. GLY enzymes hits are ranked according to their estimated conversion efficiency.

[3] = Glycosylation of 5-HO-DMT by GLY enzymes (UDP-glucose), LC-UV/MS; type: biochemical; settings: conditions of Examples 1 and 2 repeated for 5-HO-DMT
Experimental: as §1, §2, §3, §4, §5
(§6) The experiments described in Examples 1 and 2 above were repeated for 4-OH-MiPT, 4-HO-DMT and 5-HO-DMT
(§7) Below is the corresponding data for 4-OH-DMT and 5-HO-DMT.

[4] = Glycosylation of 4-OH-EPT by GLY enzymes (UDP-glucose), LC-UV/MS; type: biochemical; settings: conditions of Examples 1 and 2 repeated for 4-OH-EPT; estimate from UV peak areas
Experimental: as §1, §2, §3, §4, §5
The experiments described in Examples 1 and 2 above were repeated for 4-OH-EPT.
Below is the corresponding data for 4-OH-EPT.

[5] = Glycosylation of 4-OH-MiPT by GLY enzymes (UDP-glucose), LC-UV/MS; type: biochemical; settings: conditions of Examples 1 and 2 repeated for 4-OH-MiPT; estimate from UV peak areas
Experimental: as §1, §2, §3, §4, §5, §6
Below is the corresponding data for 4-OH-MiPT.

[6] = Glycosylation of 4-OH-DMT by GLY enzymes (UDP-glucose), LC-UV/MS; type: biochemical; settings: conditions of Examples 1 and 2 repeated for 4-HO-DMT; estimate from UV peak areas
Experimental: as §1, §2, §3, §4, §5, §6, §7

Molecule: CCCN(CC)CCc1c[nH]c2cccc(O[C@@H]3O[C@H](CO)[C@@H](O)[C@H](O)[C@H]3O)c12 [Cy1, 4-HO-EPT glycoside]
- period of exposure in brain ([1]; higher doses (20 mg/kg p.o.), brain, as compared to psilocybin 1.5 mg/kg p.o.): extended period of exposure
- period of exposure in plasma ([1]; higher doses (20 mg/kg p.o.), plasma, as compared to psilocybin 1.5 mg/kg p.o.): extended period of exposure
- time to peak brain concentration ([1]; p.o. single dose, brain, as compared to the administration of psilocybin 1.5 mg/kg p.o.): extended
- time to peak plasma concentration ([1]; p.o. single dose, plasma, as compared to the administration of psilocybin 1.5 mg/kg p.o.): extended

B1: GLY153: glycosyltransferase (UGT), SEQ ID NO: 20 (protein)
chain: MAETDSPPHVAILPSPGMGHLIPLVELAKRLVHQHNLSVTFIIPTDGSPSKAQRSVLGSLPSTIHSVFLPPVNLSDLPEDVKIETLISLTVARSLPSLRDVLSSLVASGTRVVALVVDLFGTDAFDVAREFKASPYIFYPAPAMALSLFFYLPKLDEMVSCEYSEMQEPVEIPGCLPIHGGELLDPTRDRKNDAYKWLLHHSKRYRLAEGVMVNSFIDLERGALKALQEVEPGKPPVYPVGPLVNMDSNTSGVEGSECLKWLDDQPLGSVLFVSFGSGGTLSFDQITELALGLEMSEQRFLWVARVPNDKVANATYFSVDNHKDPFDFLPKGFLDRTKGRGLVVPSWAPQAQVLSHGSTGGFLTHCGWNSTLESVVNAVPLIVWPLYAEQKMNAWMLTKDVEVALRPKASENGLIGREEIANIVRGLMEGEEGKRVRNRMKDLKDAAAEVLSEAGSSTKALSEVARKWKNHKCTQDCN
- 4-OH-MET GLY % (percentage of converted 4-HO-MET) [2]: 6%
- 5-OH-DMT GLY % [3]: 5%

B2: GLY70: glycosyltransferase (UGT), SEQ ID NO: 2 (protein)
chain: MAKQQEAELIFIPFPIPGHILATIELAKRLISHQPSRIHTITILHWSLPFLPQSDTIAFLKSLIETESRIRLITLPDVQNPPPMELFVKASESYILEYVKKMVPLVRNALSTLLSSRDESDSVHVAGLVLDFFCVPLIDVGNEFNLPSYIFLTCSASFLGMMKYLLERNRETKPELNRSSDEETISVPGFVNSVPVKVLPPGLFTTESYEAWVEMAERFPEAKGILVNSFESLERNAFDYFDRRPDNYPPVYPIGPILCSNDRPNLDLSERDRILKWLDDQPESSVVFLCFGSLKSLAASQIKEIAQALELVGIRFLWSIRTDPKEYASPNEILPDGFMNRVMGLGLVCGWAPQVEILAHKAIGGFVSHCGWNSILESLRFGVPIATWPMYAEQQLNAFTIVKELGLALEMRLDYVSEYGEIVKADEIAGAVRSLMDGEDVPRRKLKEIAEAGKEAVMDGGSSFVAVKRFIDGL
- 4-OH-MET GLY % (percentage of converted 4-HO-MET) [2]: 98.6%
- 4-OH-EPT GLY % (percentage of converted 4-OH-EPT) [4]: 80.5%
- 4-OH-MiPT GLY % (percentage of converted 4-OH-MiPT) [5]: 58.4%
- 4-OH-DMT GLY % [6]: 89.3%
- 5-OH-DMT GLY % [3]: 6%

B3: GLY163: glycosyltransferase (UGT), SEQ ID NO: 22 (protein)
chain: MTGELIFIPMPSLSHIASTMEIAKLLVHRDDRLSITVLLISSQYTTSITTYINSLIASSDYDRIRFIHLPELDSEEEPKRPFMSVIDDNKPIVKEAVTNLALSFDPSHRLAGFVIDMFCVGMIEVADELGLPSYPFFTSSTSFLALQFHVQTLADEEEVDITEFKNSDVMLPIPGLVNPLPAKTILPSAMLNKDWLPYVLNGARGFRKTKGIMVNSFAEIESNAVTSLSNSTVPPVYTVGPIINFKGDGQDSDTCTAHKYSNIMTWLDDQPPSSVLFLCFGSLGSFDEEQVKEIARALEGSGHRFLWSLRRPPPKDKTMSFPTEYENFEEVLPEGFVDRTVGMGKVMGWAPQVAVLAHPSIGGFVTHCGWNSILESVWFGVPMAAWPLYAEQQFNAFHMVVELGLAVEIKMDYRKDYAILGLQEERVSAEVIEKGIRCLMEEDNDARKKVKEMSEISRKALMDGGSSHAVLGQFIEDVMNNISA
- 4-OH-MET GLY % (percentage of converted 4-HO-MET) [2]: 40.5%
- 4-OH-EPT GLY % (percentage of converted 4-OH-EPT) [4]: 46.3%
- 4-OH-MiPT GLY % (percentage of converted 4-OH-MiPT) [5]: 61.6%
- 4-OH-DMT GLY % [6]: 10.6%

B4: GLY74: glycosyltransferase (UGT), SEQ ID NO: 6 (protein)
chain: MRNVELIFIPTPTVGHLVPFLEFARRLIEQDDRIRITILLMKLQGQSHLDTYVKSIASSQPFVRFIDVPELEEKPTLGSTQSVEAYVYDVIERNIPLVRNIVMDILTSLALDGVKVKGLVVDFFCLPMIDVAKDISLPFYVFLTTNSGFLAMMQYLADRHSRDTSVFVRNSEEMLSIPGFVNPVPANVLPSALFVEDGYDAYVKLAILFTKANGILVNSSFDIEPYSVNHFLQEQNYPSVYAVGPIFDLKAQPHPEQDLTRRDELMKWLDDQPEASVVFLCFGSMARLRGSLVKEIAHGLELCQYRFLWSLRKEEVTKDDLPEGFLDRVDGRGMICGWSPQVEILAHKAVGGFVSHCGWNSIVESLWFGVPIVTWPMYAEQQLNAFLMVKELKLAVELKLDYRVHSDEIVNANEIETAIRYVMDTDNNVVRKRVMDISQMIQRATKNGGSSFAAIEKFIYDVIGIKP
- 4-OH-MET GLY % (percentage of converted 4-HO-MET) [2]: 36%
- 4-OH-EPT GLY % (percentage of converted 4-OH-EPT) [4]: 7%
- 4-OH-MiPT GLY % (percentage of converted 4-OH-MiPT) [5]: 19.3%
- 4-OH-DMT GLY % [6]: 22.4%

B5: GLY170: glycosyltransferase (UGT), SEQ ID NO: 28 (protein)
chain: MKKINLVVIPFAGVGHLVSTIEFIKRLLSRDDRFSVTILVIKSPLEHSLDPNTSPPSLPSSHPHIQFINVRSLNPPPIEVFLKSPEKYFTLYIESYKLKVKEIIVDHVLPNSAPLGGLFLDMFSTSMVDVAQELGVPSYVFLTSGAGFLGFVLYLQTRHDRGGAEFELSDIESYIPSYVNPVPSRVLPSLAFNREGGYVSFVNVARNMKKTKGIIVNTVFELESHAISSLLMDGATPPVYAVGPLIDHKGESHFRTDQAKRDKIIKWLDDQPTKSVIFLCFGSFGSFGVPQLREIAIGLEQSGARFLWSIRQAKSIFEMPIECEKPEEFLPQGFLDRTKELGMICGWTPQIEVLAHRAIGGFVSHCGWNSILESLWHGVPIVTWPLYAEQQINAFQIVKDLGLGVELRLDYRRDGGDVDVVMRDEIEKAVRYVMDGDSEVRQRVQEASEKCRKAVVEGGSSFSSIGSLIEAILANIS
- 4-OH-MET GLY % (percentage of converted 4-HO-MET) [2]: 31.6%
- 4-OH-EPT GLY % (percentage of converted 4-OH-EPT) [4]: 23.4%
- 4-OH-MiPT GLY % (percentage of converted 4-OH-MiPT) [5]: 38.8%
- 4-OH-DMT GLY % [6]: 15.7%

B6: GLY91: glycosyltransferase (UGT), SEQ ID NO: 12 (protein)
chain: MGKQEDAELVIIPFPFSGHILATIELAKRLISQDNPRIHTITILYWGLPFIPQADTIAFLRSLVKNEPRIRLVTLPEVQDPPPMELFVEFAESYILEYVKKMVPIIREALSTLLSSRDESGSVRVAGLVLDFFCVPMIDVGNEFNLPSYIFLTCSAGFLGMMKYLPERHREIKSEFNRSFNEELNLIPGYVNSVPTKVLPSGLFMKETYEPWVELAERFPEAKGILVNSYTALEPNGFKYFDRCPDNYPTIYPIGPILCSNDRPNLDLSERDRILKWLDDQPESSVVFLCFGSLKSLAASQIKEIAQALELVGIRFLWSIRTDPKEYASPNEILPDGFMNRVMGLGLVCGWAPQVEILAHKAIGGFVSHCGWNSILESLRFGVPIATWPMYAEQQLNAFTIVKELGLALEMRLDYVSEYGEIVKADEIAGAVRSLMDGEDVPRRKLKEIAEAGKEAVMDGGSSFVAVKRFIDGL
- 4-OH-MET GLY % (percentage of converted 4-HO-MET) [2]: 20.7%
- 4-OH-EPT GLY % (percentage of converted 4-OH-EPT) [4]: 5.4%
- 5-OH-DMT GLY % [3]: 1%
